Experimental data: US20230398217A1 (published 2023)
Substitutions are numbered along the chain they refer to.

T1: HA-1 (HMHA1, also known as ARHGAP45; R139H polymorphism, genotype RS_1801284 A/G or A/A) peptide on … (human)
T1 peptide: VLHDDLLEA

T2: CCDC114 peptide on HLA-A*02:01 (human)
T2 peptide: SMIDDLLGV

B1: HA1-10-104 (TCR, V domains shown)
Valpha: AQSVTQPDIHITVSEGASLELRCNYSYGATPYLFWYVQSPGQGLQLLLKYFSGDTLVQGIKGFEAEFKRSQSSFNLRKPSVHWSDAAEYFCAVANAGGTSYGKLTFGQGTILTVHP
Vbeta: NAGVTQTPKFRVLKTGQSMTLLCAQDMNHEYMYWYRQDPGMGLRLIHYSVGEGTTAKGEVPDGYNVSRLKKQNFLLGLESAAPSQTSVYFCASGRSGTKFFGPGTRLTVL
B2: HA1-10-34 (TCR, V domains shown)
Valpha: GENVEQHPSTLSVQEGDSAVIKCTYSDSASNYFPWYKQELGKRPQLIIDIRSNVGEKKDQRIAVTLNKTAKHFSLHITETQPEDSAVYFCAARGPGTYKYIFGTGTRLKVLA
Vbeta: DTGVSQDPRHKITKRGQNVTFRCDPISEHNRLYWYRQTLGQGPEFLTYFQNEAQLEKSRLLSDRFSAERPKGSFSTLEIQRTEQGDSAMYLCASVAGTVYNEQFFGPGTRLTVL
B3: HA1-6-2 (TCR, V domains shown)
Valpha: AQTVTQSQPEMSVQEAETVTLSCTYDTSESNYYLFWYKQPPSRQMILVIRQEAYKQQNATENRFSVNFQKAAKSFSLKISDSQLGDTAMYFCALYSGAGSYQLTFGKGTKLSVIP
Vbeta: B2 Vbeta with V95F, A96E, G97L, T98A, V99G, Y100G, N101Y
B4: HA1-1-12 (TCR, V domains shown)
Valpha: EDQVTQSPEALRLQEGESSSLNCSYTVSGLRGLFWYRQDPGKGPEFLFTLYSAGEEKEKERLKATLTKKESFLHITAPKPEDSATYLCAVHLNAGGTSYGKLTFGQGTILTVHP
Vbeta: DAGVTQSPTHLIKTRGQHVTLRCSPISGHKSVSWYQQVLGQGPQFIFQYYEKEERGRGNFPDRFSARQFPNYSSELNVNALLLGDSALYLCASSFDRGTNGYTFGSGTRLTVV
B5: HA1-TSC-100 (TCR, V domains shown)
Valpha: KQEVTQIPAALSVPEGENLVLNCSFTDSAIYNLQWFRQDPGKGLTSLLLIQSSQREQTSGRLNASLDKSSGRSTLYIAASQPGDSATYLCAVRGGTSGTYKYIFGTGTRLKVLA
Vbeta: DTGVSQDPRHKITKRGQNVTFRCDPISEHNRLYWYRQTLGQGPEFLTYFQNEAQLEKSRLLSDRFSAERPKGSFSTLEIQRTEQGDSAMYLCASSRTAGDTQYFGPGTRLTVL
B6: HA1-9-105 (TCR, V domains shown)
Valpha: GENVEQHPSTLSVQEGDSAVIKCTYSDSASNYFPWYKQELGKRPQLIIDIRSNVGEKKDQRIAVTLNKTAKHFSLHITETQPEDSAVYFCAVGQNFVFGPGTRLSVLP
Vbeta: B5 Vbeta with R96P, A98T, G99I, D100N, T101E, Q102A, Y103F, P106Q, L113V
B7: HA1-Fred Hutch (TCR, V domains shown)
Valpha: KQEVTQIPAALSVPEGENLVLNCSFTDSAIYNLQWFRQDPGKGLTSLLLIQSSQREQTSGRLNASLDKSSGRSTLYIAASQPGDSATYLCAVIGLGGTYKYIFGTGTRLKVLA
Vbeta: B5 Vbeta with R96L, T97V, A98K, D100E, T101K, Q102L, Y103F, P106S, R109Q, T111S
B8: HA1-2-21 (TCR, V domains shown)
Valpha: GQQVMQIPQYQHVQEGEDFTTYCNSSTTLSNIQWYKQRPGGHPVFLIQLVKSGEVKKQKRLTFQFGEAKKNSSLHITATQTTDVGTYFCAGPSGNTPLVFGKGTRLSVIA
Vbeta: B5 Vbeta with R96L, T97L, A98T, G99T, D100N, T101E, Y103F
B9: HA1-9-46 (TCR, V domains shown)
Valpha: GENVEQHPSTLSVQEGDSAVIKCTYSDSASNYFPWYKQELGKRPQLIIDIRSNVGEKKDQRIAVTLNKTAKHFSLHITETQPEDSAVYFCAASIMRFGAGTRLTVKP
Vbeta: B5 Vbeta with D7N, R96L, T97S, A98V, G99V, T101E, Y103F
B10: HA1-10-93 (TCR, V domains shown)
Valpha: B9 Valpha with A91P, A92I, S93R, I94Q, M95F, R96Y, A99T, R102S, K106I
Vbeta: B5 Vbeta with R96L, T97V, A98V, G99V
B11: HA1-2-23 (TCR, V domains shown)
Valpha: B5 Valpha with G94P, G95T
Vbeta: B5 Vbeta with S95I, R96L, T97V, A98G, D100T, T101E, Q102A, Y103F, P106Q, L113V
B12: HA1-10-26 (TCR, V domains shown)
Valpha: GENVEQHPSTLSVQEGDSAVIKCTYSDSASNYFPWYKQELGKRPQLIIDIRSNVGEKKDQRIAVTLNKTAKHFSLHITETQPEDSAVYFCAASGLGSGAGSYQLTFGKGTKLSVIP
Vbeta: B5 Vbeta with R96L, T97L, D100E, T101K, Q102L, Y103F, P106S, R109Q, T111S

Assays:
[1] = biological target: T1, HA-1 (HMHA1, also known as ARHGAP45; …); test: multimer staining
[2] = biological target: T2, CCDC114 peptide on HLA-A*02:01; test: activation reporter or marker
[3] = biological target: T1, HA-1 (HMHA1, also known as ARHGAP45; …); test: killing

Binder | binding result [1] | binding result [2] | binding result [3]
B1 | recognises |  | 
B2 | recognises |  | 
B3 | recognises |  | 
B4 | recognises |  | 
B5 | recognises | no recognition | 
B6 | recognises |  | 
B7 |  | recognises | recognises
B8 | recognises |  | 
B9 | recognises |  | 
B10 | recognises |  | 
B11 | recognises |  | 
B12 | recognises |  | 
